Assay results published in US20060257938A1, “Method of screening for drugs that block ligand binding to a lipid binding protein” (priority 2005, published 2006).
Substitutions are numbered along the chain they refer to. Values joined by “and” are separate entries in the source; they are usually repeats but may differ in a detail not shown here. Equal entries are not always repeated.

B1: 38Q1, 72A (protein, listed as Rattus norvegicus)
chain: AFDGTWKVDRNENYEKFMEKMGINVVKRKLGAHDNLKQTITQEGNKFTVKESSNFRNIDVVFELGVDFAYSAADGTELTGTWTMEGNKLVGKFKRVDNGKELIAVREISGNELIQTYTYEGVEAKRIFKKE
modifications: PEPTIDE (1)...(131) wild-type rat intestinal fatty acid binding protein
B2: 47A1, L72A (protein, listed as Rattus norvegicus)
chain: B1 chain with Q38L, F47A
modifications: PEPTIDE (1)...(131) wild-type rat intestinal fatty acid binding protein
B3: 102R, 72A (protein, listed as Rattus norvegicus)
chain: B1 chain with Q38L, L102R
modifications: PEPTIDE (1)...(131) wild-type rat intestinal fatty acid binding protein
B4: 47P1, L72A (protein, listed as Rattus norvegicus)
chain: B1 chain with Q38L, F47P
modifications: PEPTIDE (1)...(131) wild-type rat intestinal fatty acid binding protein
B5: 47I2, L72A (protein, listed as Rattus norvegicus)
chain: B1 chain with Q38L, F47I
modifications: PEPTIDE (1)...(131) wild-type rat intestinal fatty acid binding protein
B6: 47E3, L72A (protein, listed as Rattus norvegicus)
chain: B1 chain with Q38L, F47E
modifications: PEPTIDE (1)...(131) wild-type rat intestinal fatty acid binding protein
B7: 38T3, 72A (protein, listed as Rattus norvegicus)
chain: B1 chain with Q38T
modifications: PEPTIDE (1)...(131) wild-type rat intestinal fatty acid binding protein
B8: 102Q, 72A (protein, listed as Rattus norvegicus)
chain: B1 chain with Q38L, L102Q
modifications: PEPTIDE (1)...(131) wild-type rat intestinal fatty acid binding protein
B9: 47L2, L72A (protein, listed as Rattus norvegicus)
chain: B1 chain with Q38L, F47L
modifications: PEPTIDE (1)...(131) wild-type rat intestinal fatty acid binding protein
B10: 40F2, L72A (protein, listed as Rattus norvegicus)
chain: B1 chain with Q38L, I40F
modifications: PEPTIDE (1)...(131) wild-type rat intestinal fatty acid binding protein
B11: 38V2, 72A (protein, listed as Rattus norvegicus)
chain: B1 chain with Q38V
modifications: PEPTIDE (1)...(131) wild-type rat intestinal fatty acid binding protein
B12: 47H1, L72A (protein, listed as Rattus norvegicus)
chain: B1 chain with Q38L, F47H
modifications: PEPTIDE (1)...(131) wild-type rat intestinal fatty acid binding protein
B13: 47R3, L72A (protein, listed as Rattus norvegicus)
chain: B1 chain with Q38L, F47R
modifications: PEPTIDE (1)...(131) wild-type rat intestinal fatty acid binding protein
B14: 102S, 72A (protein, listed as Rattus norvegicus)
chain: B1 chain with Q38L, L102S
modifications: PEPTIDE (1)...(131) wild-type rat intestinal fatty acid binding protein
B15: 47C3, L72A (protein, listed as Rattus norvegicus)
chain: B1 chain with Q38L, F47C
modifications: PEPTIDE (1)...(131) wild-type rat intestinal fatty acid binding protein
B16: 38Y1, 72A (protein, listed as Rattus norvegicus)
chain: B1 chain with Q38Y
modifications: PEPTIDE (1)...(131) wild-type rat intestinal fatty acid binding protein
B17: 38S1, 72A (protein, listed as Rattus norvegicus)
chain: B1 chain with Q38S
modifications: PEPTIDE (1)...(131) wild-type rat intestinal fatty acid binding protein
B18: 47T1, L72A (protein, listed as Rattus norvegicus)
chain: B1 chain with Q38L, F47T
modifications: PEPTIDE (1)...(131) wild-type rat intestinal fatty acid binding protein
B19: 40Y3, L72A (protein, listed as Rattus norvegicus)
chain: B1 chain with Q38L, I40Y
modifications: PEPTIDE (1)...(131) wild-type rat intestinal fatty acid binding protein
B20: 47M, 72A (protein, listed as Rattus norvegicus)
chain: B1 chain with Q38L, F47M
modifications: PEPTIDE (1)...(131) wild-type rat intestinal fatty acid binding protein
B21: 47S1, L72A (protein, listed as Rattus norvegicus)
chain: B1 chain with Q38L, F47S
modifications: PEPTIDE (1)...(131) wild-type rat intestinal fatty acid binding protein
B22: 38W1, 72A (protein, listed as Rattus norvegicus)
chain: B1 chain with Q38W
modifications: PEPTIDE (1)...(131) wild-type rat intestinal fatty acid binding protein
B23: 40V1, L72A (protein, listed as Rattus norvegicus)
chain: B1 chain with Q38L, I40V
modifications: PEPTIDE (1)...(131) wild-type rat intestinal fatty acid binding protein

Assay: Probe fluorescence ratio response to oleic acid relative to ADIFAB2
Type: binding
Settings: response relative to ADIFAB2
Method in brief: (§1)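 Fluorescently labeled rat intestinal FABP variants were read at two emission wavelengths, near the unbound maximum (about 420 to 480 nm) and the FFA-bound maximum (about 495 to 580 nm). R = Fλ1/Fλ2 after subtracting probe-free intensity; ΔR = R+agent − R0, normalized to ADIFAB2 (rI-FABP-L72A).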
For B1, the “DR/DR OA” value was 1.75. For B2, the “DR/DR OA” value was 0.59. In the case of B3, the “DR/DR OA” value is reported as 0.56. For B4, the “DR/DR OA” value was 0.57. For B5, the “DR/DR OA” value was 1.15. In the case of B6, the “DR/DR OA” value is reported as 1.25. With B7 the “DR/DR OA” value was 1.55. With B8 the “DR/DR OA” value was 0.60. With B9 the “DR/DR OA” value was 1.20. With B10 the “DR/DR OA” value was 0.90. In the case of B11, the “DR/DR OA” value is reported as 1.75. In the case of B12, the “DR/DR OA” value is reported as 0.67. In the case of B13, the “DR/DR OA” value is reported as 0.62. In the case of B14, the “DR/DR OA” value is reported as 0.43. In the case of B15, the “DR/DR OA” value is reported as 0.35. With B16 the “DR/DR OA” value was 1.72. In the case of B17, the “DR/DR OA” value is reported as 1.28. In the case of B18, the “DR/DR OA” value is reported as 0.74. For B19, the “DR/DR OA” value was 0.48. With B20 the “DR/DR OA” value was 1.17 and 1.168. With B21 the “DR/DR OA” value was 0.64. With B22 the “DR/DR OA” value was 1.58. For B23, the “DR/DR OA” value was 1.21.

Assay: Probe fluorescence ratio response to linolenic acid relative to ADIFAB2
Type: binding
Settings: response relative to ADIFAB2
Method in brief: as §1
With B1 the “DR/DR LNA” value was 1.87. In the case of B2, the “DR/DR LNA” value is reported as 0.57. In the case of B3, the “DR/DR LNA” value is reported as 0.57. For B4, the “DR/DR LNA” value was 0.61. For B5, the “DR/DR LNA” value was 1.19. In the case of B6, the “DR/DR LNA” value is reported as 1.26. For B7, the “DR/DR LNA” value was 1.64. With B8 the “DR/DR LNA” value was 0.71. With B9 the “DR/DR LNA” value was 1.20. For B10, the “DR/DR LNA” value was 0.99. With B11 the “DR/DR LNA” value was 1.67. For B12, the “DR/DR LNA” value was 0.70. With B13 the “DR/DR LNA” value was 0.61. With B14 the “DR/DR LNA” value was 0.43. With B15 the “DR/DR LNA” value was 0.35. With B16 the “DR/DR LNA” value was 1.88. In the case of B17, the “DR/DR LNA” value is reported as 1.37. For B18, the “DR/DR LNA” value was 0.74. In the case of B19, the “DR/DR LNA” value is reported as 0.49. For B20, the “DR/DR LNA” value was 1.13 and 1.135. With B21 the “DR/DR LNA” value was 0.69. For B22, the “DR/DR LNA” value was 1.34. In the case of B23, the “DR/DR LNA” value is reported as 1.28.

Assay: Probe fluorescence ratio response to linoleic acid relative to ADIFAB2
Type: binding
Settings: response relative to ADIFAB2
Method in brief: as §1
With B1 the “DR/DR LA” value was 1.90. With B2 the “DR/DR LA” value was 0.58. With B3 the “DR/DR LA” value was 0.60. In the case of B4, the “DR/DR LA” value is reported as 0.59. In the case of B5, the “DR/DR LA” value is reported as 1.22. In the case of B6, the “DR/DR LA” value is reported as 1.23. In the case of B7, the “DR/DR LA” value is reported as 1.58. With B8 the “DR/DR LA” value was 0.66. For B9, the “DR/DR LA” value was 1.21. With B10 the “DR/DR LA” value was 0.90. For B11, the “DR/DR LA” value was 1.70. With B12 the “DR/DR LA” value was 0.74. In the case of B13, the “DR/DR LA” value is reported as 0.64. For B14, the “DR/DR LA” value was 0.45. For B15, the “DR/DR LA” value was 0.37. For B16, the “DR/DR LA” value was 1.82. For B17, the “DR/DR LA” value was 1.37. In the case of B18, the “DR/DR LA” value is reported as 0.77. In the case of B19, the “DR/DR LA” value is reported as 0.50. For B20, the “DR/DR LA” value was 1.18 and 1.183. With B21 the “DR/DR LA” value was 0.66. For B22, the “DR/DR LA” value was 2.41. With B23 the “DR/DR LA” value was 1.24.

Assay: Probe fluorescence ratio response to palmitic acid relative to ADIFAB2
Type: binding
Settings: response relative to ADIFAB2
Method in brief: as §1
With B1 the “DR/DR PA” value was 1.30. For B2, the “DR/DR PA” value was 0.30. For B3, the “DR/DR PA” value was 0.25. For B4, the “DR/DR PA” value was 0.26. For B5, the “DR/DR PA” value was 0.92. In the case of B6, the “DR/DR PA” value is reported as 1.06. For B7, the “DR/DR PA” value was 1.02. In the case of B8, the “DR/DR PA” value is reported as 0.30. With B9 the “DR/DR PA” value was 0.90. With B10 the “DR/DR PA” value was 0.80. For B11, the “DR/DR PA” value was 1.50. For B12, the “DR/DR PA” value was 0.43. In the case of B13, the “DR/DR PA” value is reported as 0.30. In the case of B14, the “DR/DR PA” value is reported as 0.18. In the case of B15, the “DR/DR PA” value is reported as 0.23. For B16, the “DR/DR PA” value was 1.52. With B17 the “DR/DR PA” value was 0.71. In the case of B18, the “DR/DR PA” value is reported as 0.46. With B19 the “DR/DR PA” value was 0.29. In the case of B20, the “DR/DR PA” value is reported as 0.97 and 0.966. With B21 the “DR/DR PA” value was 0.34. In the case of B22, the “DR/DR PA” value is reported as 1.55. With B23 the “DR/DR PA” value was 0.91.

Assay: Probe fluorescence ratio response to arachidonic acid relative to ADIFAB2
Type: binding
Settings: Arachidonic acid; response relative to ADIFAB2
Method in brief: as §1
In the case of B1, the “DR/DR AA” value is reported as 1.87. In the case of B2, the “DR/DR AA” value is reported as 0.54. In the case of B4, the “DR/DR AA” value is reported as 0.54. In the case of B5, the “DR/DR AA” value is reported as 1.19. With B6 the “DR/DR AA” value was 1.25. In the case of B7, the “DR/DR AA” value is reported as 1.60. For B9, the “DR/DR AA” value was 1.15. For B10, the “DR/DR AA” value was 0.89. For B11, the “DR/DR AA” value was 1.65. For B12, the “DR/DR AA” value was 0.63. For B13, the “DR/DR AA” value was 0.56. In the case of B15, the “DR/DR AA” value is reported as 0.32. With B16 the “DR/DR AA” value was 2.08. With B17 the “DR/DR AA” value was 1.28. For B18, the “DR/DR AA” value was 0.68. With B19 the “DR/DR AA” value was 0.89. With B20 the “DR/DR AA” value was 1.14. For B21, the “DR/DR AA” value was 0.61. For B22, the “DR/DR AA” value was 1.35. With B23 the “DR/DR AA” value was 1.20.

Same assay, conditions: arachidonic acid; response relative to ADIFAB2
For B3, the “DR/DR AA” value was 0.51. For B8, the “DR/DR AA” value was 0.62. With B14 the “DR/DR AA” value was 0.39. For B20, the “DR/DR AA” value was 1.138.
